Assay: yeast display, Sf9 membrane polyspecificity reagent, FACS + sequencing; frameworks hold sequencing errors
Method in brief: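 Nanobodies came from a synthetic yeast display library in Saccharomyces cerevisiae BJ5465, induced with galactose for 36–48 hours and stained for 1 hour at 4 °C with 10% biotinylated, detergent-solubilized Sf9 membrane reagent. Cells were enriched on streptavidin microbeads and then FACS-sorted, with low and high (top ~1%) gates set on anti-HA fluorescence for expression and streptavidin fluorescence for reagent binding. Each polyreactivity label reflects the gate a clone came from. Genes were amplified by colony PCR, sequenced by MiSeq 2 × 250 and filtered by CDR length.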

| Sequence | polyreactivity (PSR sort gate) |
| --- | --- |
| QVQLVESGGGLVQARGSLRLSCAASGRTFGGYARGWYRQAPGKERELVATISKRAGSTYYADSVKGRFTISRDHAKNTVYLQMNSLKPEDTAVYYCAKVKSARYQEYEYWGQGTQVTVSS | high polyreactivity |
| QVQLVESGGGLVQAGGSLRLSCAASGFIFRSYAMGWYRQAPGKEREFVAAITTRGTGTYYADSVKGRFTISRDNAKNTVYLQMNSLKPEDTAVYDCAARRGWGDDYWGQGTQVTVSS | high polyreactivity |
| QVQLVESGGGLVQAGGSLRLSCAASGFIFSPYAMGWYRQAPGKERELVAAISSGTRTNYADSVKGRFTISRDNAKNTVYLQMNSLKPEDTAVYYCAAKYRGTYDSRVYYWFYYWGQGTQVTVSS | high polyreactivity |
| QVQLEESGGGLVQAGGSLRLSCAASGRISGFNAMGWYRKAPGKEREFVAAISYRGGYTYADSVKGRFTISRDNAKNTVYLQMNSLKPEDTAVYYCNALWRGHGRYNYWGQGTQVNVSS | low polyreactivity |
| QVQLVDSGGGLVQAGGSLRLTCAASGRTFRYNAMGWYRQAPGKERDLVARISRGGSPYADSVKGRFTISRDNAKNTVYLQMNSLKPEDSAVYYCAADPTKHNQSEYYYWGQGTQVNVSS | low polyreactivity |
| QVQLVESGGGLVQAGGSLRISCDASGSTFYPYAMGWYRQAPGKERELVAAISSGGSTSYADSVKGRFTISRDNAKNTVYLQMNSLKPEDTAVYYCNASSPGAVPVYDYDYWGQGTQVTVSS | low polyreactivity |
| QVQLVESCGGLVQAGGSLRLSCAASGRTFTDYVMGWYRQAPGKERELVAGIRRSGGTYYADSVKGRFTISRDNAKNTVYLQMNSLKPEDTAVYYCAAPVQTGPDPEYDYWGQGTQVTVSS | low polyreactivity |
| QVQLVESGGGLVQAGGSLRLSCAASGSTFWLNAMGWYRQAPGKEREYVAAITWSSGSTYYADSVKGRFTISRDNAKNTVYLQMNSLKPEDTAVYYCAADGRYVRIRGDYWGQGTQVTVSS | low polyreactivity |
| QVQLVESGGGLVQAGGSLRLSCAASRLTFQQYAMGWYRQAPGKERELVAAITSDGASTNYADSVKGRFTISRDYAKNTVYLQMNSLKPEDTAVYYCAARRRSRQYRYDYWGQGTQVTVSS | high polyreactivity |
| QVQLVESGGCLVQAGGSLRLSSAPSGSTFPVNAMGWYRQAAGKERELVAAITYRDGDTYYADSVKGRFTISRDYAKNTVYLQMNSLKPEDTAVYYCNADVGRHGKNSHMDYWGHGTQVTVSS | low polyreactivity |
| QVQLVESGGGLVQAGGSLRLSCAASGITFNRYSMGWYRQAPGKERELVARISLRGGNTYYADSVKGRFTISRDNAKNTVYLQMNSLKPEDPAVYYCNADLYRQYASRYHYWGQGTQVTVSS | high polyreactivity |
| QVQLQESGGGLVQAGGSLCMSCAASGSISDYIFMGWYRQAPGKEREFVAGIGIGGNTNYADSVKGRFTISRDNAKNTVYLQMNSLKPEDTAVYYCAANATYTDYYAYWGQGTQVTVSS | low polyreactivity |
| QVQRVESGGGLVQAGGSLRLSCAASGRTFRYYAMGWYRQAPGKERELVAAITSGGSTSYADSVKGRFTISRDNAKNTVYLQMNSLKPEDTAVYYCAAVPAGLWATYPQFRYGYWGQGTQVTVSS | high polyreactivity |
| QVQLVESGGGLVQAGVSLRLSCAASGFIFPYYAMGWYRQAPGKERELVAAITRGGRTYYADSVKGRFTISRDNAKNTVYLQMNSLKPEDTAVYYCAARSVGKRGYDYWGLGTQVTVSS | high polyreactivity |
| HVQLVESGGGLVQAGGSLRLSCAASGFIGIYAMGWYRQAPGKERELVAAITTSGGRTYYADSVKGRFTISRDNAKNTVYLQMNSLKPEDTAVYYCAAPWRLFSLYDYWGQGTQVTVSS | low polyreactivity |
| QVQLVESGGGLVQAGGSLRLSCAASGRTFPNVMGWYRQAPGKERELVAAISSSVGSTSYADSVKGRFTISRDNAKNTVYLQMNSLKPEDTAVYYCAARYYYRDWVGIISTYYYWGQGTQVTVSS | high polyreactivity |
| QVQLVESGGGLVQAGGTLRLSCAASGYIFVIYAMGWYRQAPGKEREWVAAISWSGDTTYYADSVKGRFTISRDNAKNTVYLQMNSLKPEDTAVYYCNAETAYYQVDYWGQGTQVTVSS | low polyreactivity |
| QVQLVESGGGLVQAGGSLRLSCAASGSTFVGYAMGWYRQAPGTERDLVAAISSSGSTNYADSVKGRFTISRDNAKNTVYLQMNSLKPEDTAVYYCAALYSYFWLIIDYGYWGQGTQVTVSS | low polyreactivity |
| QVQLVETGGGLVQAGGSLRLSCAASGSTLAPYVMGWYRQAPGKERELVAVISTRTGRTYYADSVKGRFTISRDNAKNTVYLQMNSLKPEDTAVYYCAAPVYPYQVQTYDYWGQGTQVTVSS | high polyreactivity |
| QVQLVESGGGVDQAGVSLRLSCAASGIICFGYAMGWYRQAPGNERELVARITRSGASTYYADSVKGRFTISRDNAKKTVYLQMYSLTPEDTPVSYCAADYRKRYDYWGQGTQVTVSS | low polyreactivity |
| QVQLVESGGGLVQAGGSLRISCAASGYIYGYNAMGWYRQAPGIAREFVAAIRFSGGSTYYADSVKGRFTISRDNAKNTVYLQMNSLKPEDTAVYYCAKRCYAHLIPIAYEYWGQGTQVTVSS | low polyreactivity |
| QVQLVESGGGLVQAGGSLRLTCAASGFIFHRYAMGWYRQAPGKERELVAAITLNGGSTYYADSVKGRFTISRDNAKNTVYLQLNSLKPEDTAVYYCNAGWPWYVGGYYYWGQGTQVTVSS | low polyreactivity |

| Sequence | polyreactivity (PSR sort gate) |
| --- | --- |
| QVQLVESGGGLVQAGGSLRLSCAASGRIFGYYVMGWYRPAPGKERELVAAIRSSADSTYYADSVKGRFTISRDNAKNTVYLQMNSLKPEDTAVYDCAAQSPAYYTKSYWGQGTQVTVSS | low polyreactivity |
| QVQHVESGGGLVQAGGSLRLSCAASGSIFSAYTMGWYRPAPGKERELVAAISSSGGRTYYADSVKGRFTISRDNAKNTVYLQMNSLKPEDTAVYYCAAGYWWALSSRGYGYWGQGTQVTVSS | high polyreactivity |
| QVQLVESGGGLVQAGGSLRLSCAASGRTFGLYAMGWYRQAPGKERELVASNTYSGGRTNYADSVKGRFTISRDNAKNTVYLQMNSLKPEDTAVYYCAASLWDDDSRLMYYWGQGTQVTVSS | high polyreactivity |
| QVQLVESGGGLDQAGGSLRLSCAASGSIFWYNTMGWYRQAPGKERELVAAITFSGGSTYYADSVKGRFTISRDNAKNTVYLQMNSLKPEDTAVYYCAAVFYSAVGYFYWGQGTQVTVSS | low polyreactivity |
| QVQLVESGRGLVQAGGSLRLSCAPSGSNFPPNAMGWYRQAPGKEREFVASITSSGGITNYADSVKGRFTISRDNAKNTVYLQMNSLKPEDTAVYFCAAVQTWRWVYARDYWGQGTQVTVSS | high polyreactivity |
| QVQLVESGGGLVQAGGRLRLSCAASGSTFGENVMGWYRQAPGKERELVAAISRGGSTYYADSVKGRFTISRDNAKNTVYLQMNSLKPEDTAVYYCAARTRSGPRYNYNYWGQGTQVTVSS | high polyreactivity |
| QVQLVESGGGLVQAGGSLRLSCAASGSTFWSYAMGWYRQAPGKERELVADIRWSGDGTYYADSVKGRFTISRDNAKITVYLQMNSLKPEDTAVYYCAADYFPVNSYGYWGQGTQVTVSS | low polyreactivity |
| QDQLVESGGGLVQAGGSLRLSCAASGITFDYYVMGWYRKAPGKEMELVAAISWSGGTTYYADSVKGRFTISRDNAKNTVSLQMNSLKPEDTAVYYCNAEHTGSFYGGYPWEMEYWGQGTQVTVSS | low polyreactivity |
| QVQLVESGGGLVQAGGSLRLSCAASGLPSKLMHMGWYRQAPGKERELVAAISSSGGRTYYADSVKGRITISRDNAKNTVYLQMNILKPEDTAVYYCAATARYRSYSASYYWGQGTQVTVSS | high polyreactivity |
| QVQLVESGGGLVQAGGSLRLSCAASGNTCTPNGMGWYRQAPGKEREFVAAITWSGGRTHYADSVKGRFTISRDNAKNTVYLQMNSLKPEDTAVYYCAARRSHFEYGTYSGYDYYWGQGTQVTVSS | high polyreactivity |
| QVQLQESVDGLVQAGGSLSLSSAASGTIFSDYGMGGYRQAPGKERELLAGISDGCNTNYTDSVKGRCTISRDNAHRVSADEQPETGGYRGVLLRGSERWLLFYVYWGQGTQVTVSS | high polyreactivity |
| QVQLVESGGGLVQAGGSLRLSCAASGFIFYNYAMGWYRQAPGKERELVAAITSRGGSTYYADSVKGRFTISRDNAKNTVYLQMNSLKPEDTAVYYCAAVKVGDARFVRNDYWGQGTQVTVSS | high polyreactivity |
| QFQLVESVGGLVQAGGILRLSCAASGRNYNSYAMGWYRKAPGKERELVAAISRTGASTYYSDSVKGRFTISRDNAKNTVYLQMNSLKPEDTAVYYCAADANSGDGYYWGQGTQVTVSS | high polyreactivity |
| QVQHVESGGGLVQAGGSLRLSCAAYGRTLDVNAMGWYRQAPGKERELVAAIDWGVGTTYYADSVKGRFTISRDNAKNTVYLQMNSLKPEDTAVYYCAVEVYYSVYGYPVQYYYWGQGTQVTVSS | high polyreactivity |
| KVQLVESGGGLVQAGGSLRLSCAASGFTFRSYAMGWYRQAPGKERDFVAAITINGGSTYYADSVKGRFTISRDNAKNTVYLQMNSLKPEDTAVYYCAAGTLYRIRGYPLWQYDYWGQGTQVTVSS | high polyreactivity |
| QVQLVESGGGLVQAGGSLRLSCAASGIIFRTYAMGWYRQAPGKERELVAAISGTTGSKYYADSVKGRFTISRDNAKNTVYLQMNSLKPEDTAVYYCAADFYWYIRYDYWGQGTQVTVSS | low polyreactivity |
| QVQLVESGGGLVQAGGSLRLSCAASGSIFSYYAMGWYRQAPGKERELVAAISSRGGSTYYADSVKGRFTISRDNAKKTVYLQMNSLKPEDTAVYYCAADWTSWFGVTYDYWGQGTQVTVSS | high polyreactivity |
| QVQLVESGGGLVQAGGSLRLSCAASGFTFRVYAMGWYRHAPGKERELVAAITKRGGSTYYADSVKGRFTISRDNAKNTVYLQMNSLKPEDTAVYYCAAVNVRHFSYWGQGTQVTVSS | high polyreactivity |
| QVQLVESGGGLVQAGGSLRLSCAASGSTFVSNAMGWYRPAPGKERELVAAISTSGGSTYYADSVKGRFTISRDNAKNTVYLLMNSLKPEDTAVYYCAKLLARGFRIWQDYDYWGQGTQVTVSS | low polyreactivity |
| QVQLVESGGGLVQAGGSLRLSCAASGNTLRYNVMGWYRQAPGKERELVAAISGGGSTSYTDSVKGRFTISRDNAKNTVYLQMNSLKPEDTAVYYCAKRSFVGGRGRDSDYWGQGTQVTVSS | low polyreactivity |
| QVQRVESGGGLVQAGGSLRLSCAASGSIFSSNVMGWYRQAPGKEREIVAAITTGGSTNYADSVKGRFTISRDNAKNTVYLQMYCLKREDTAFYYCSFSYGYYLFVDWGYGCWGQGSQVTVSS | low polyreactivity |
